Data published in paper PMC3538848.

Key:
[1] = molecular target: A/Hong Kong/1/1968 (H3N2) hemagglutinin ectodomain, biotinylated (influenza A virus A/Hong Kong/1/1968 (H3N2)); test: BLI
[2] = molecular target: A/Hong Kong/1/1968 (H3N2) hemagglutinin ectodomain, biotinylated (influenza A virus A/Hong Kong/1/1968 (H3N2)); test: ITC
[3] = molecular target: A/Hong Kong/1/1968 (H3N2) hemagglutinin ectodomain, biotinylated (influenza A virus A/Hong Kong/1/1968 (H3N2)); test: BLI; remark: listed apart in the source
[4] = molecular target: A/Vietnam/1203/2004 (H5N1) hemagglutinin ectodomain (influenza A virus A/Vietnam/1203/2004 (H5N1))
[5] = molecular target: hemagglutinin of A/Brisbane/59/2007 (H1N1) (influenza A virus A/Brisbane/59/2007 (H1N1))
[6] = molecular target: hemagglutinin of A/California/04/2009 (H1N1) (influenza A virus A/California/04/2009 (H1N1)) (UniProt C3W5S1)
[7] = molecular target: hemagglutinin of A/Guiyang/1/1957 (H2N2) (influenza A virus A/Guiyang/1/1957 (H2N2))
[8] = molecular target: hemagglutinin of A/Hong Kong/1073/1999 (H9N2) (influenza A virus A/Hong Kong/1073/1999 (H9N2))
[9] = molecular target: hemagglutinin of A/Memphis/3/2008 (H1N1) (influenza A virus A/Memphis/3/2008 (H1N1))
[10] = molecular target: hemagglutinin of A/Virginia/670/1987 (H1N1) (influenza A virus A/Virginia/670/1987 (H1N1))
[11] = molecular target: A/Japan/305/1957 (H2N2) hemagglutinin ectodomain (influenza A virus A/Japan/305/1957 (H2N2)); test: negative-stain EM, single-particle 3D reconstruction

C05 Fab (recombinant, for binding studies)
Kd [1]: 430 nM
Kd [2]: 100 nM
Kd [3]: 500 nM

C05 IgG (antibody)
MIC, hemagglutination inhibition (HAI) [4]: > 100 µg/mL
MIC, hemagglutination inhibition (HAI) [5]: 1.56 µg/mL
MIC, hemagglutination inhibition (HAI) [6]: > 100 µg/mL
MIC, microneutralization (MN) [7]: 18 µg/mL
MIC, microneutralization (MN) [8]: 90 µg/mL
MIC, hemagglutination inhibition (HAI) [9]: < 2.3 µg/mL
MIC, hemagglutination inhibition (HAI) [10]: > 100 µg/mL

C05 Fab (Lys-C digestion of IgG)
stoichiometry N [11]: 3
